# Experimental data taken from publication PMC7619206, “Human mitochondrial glutathione transferases: Kinetic parameters and accommodation of a mitochondria-targeting group in substrates” (Bioorganic & medicinal chemistry, 2024).
# T1: hGSTA4-4 (Homo sapiens, UniProt O15217)
# T1 construct: gene GSTA4
# T1 sequence (O15217 1-222): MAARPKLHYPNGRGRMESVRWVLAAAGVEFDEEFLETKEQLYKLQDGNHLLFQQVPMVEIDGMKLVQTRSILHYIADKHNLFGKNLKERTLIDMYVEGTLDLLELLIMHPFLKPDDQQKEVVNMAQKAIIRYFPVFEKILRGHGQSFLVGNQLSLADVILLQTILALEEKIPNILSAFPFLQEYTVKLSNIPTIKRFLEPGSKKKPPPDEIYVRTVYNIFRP
# T2: hGSTA1-1 (Homo sapiens, UniProt P08263)
# T2 construct: gene GSTA1
# T2 sequence (P08263 1-222): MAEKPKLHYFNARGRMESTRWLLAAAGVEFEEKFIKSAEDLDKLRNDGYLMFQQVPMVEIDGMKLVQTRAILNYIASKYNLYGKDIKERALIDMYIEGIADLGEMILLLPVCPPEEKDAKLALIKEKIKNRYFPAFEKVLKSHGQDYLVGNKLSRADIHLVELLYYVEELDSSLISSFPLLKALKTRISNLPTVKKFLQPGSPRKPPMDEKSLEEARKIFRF
# T3: hGSTK1-1 (Homo sapiens, UniProt Q9Y2Q3)
# T3 construct: gene GSTK1
# T3 sequence (Q9Y2Q3 1-226): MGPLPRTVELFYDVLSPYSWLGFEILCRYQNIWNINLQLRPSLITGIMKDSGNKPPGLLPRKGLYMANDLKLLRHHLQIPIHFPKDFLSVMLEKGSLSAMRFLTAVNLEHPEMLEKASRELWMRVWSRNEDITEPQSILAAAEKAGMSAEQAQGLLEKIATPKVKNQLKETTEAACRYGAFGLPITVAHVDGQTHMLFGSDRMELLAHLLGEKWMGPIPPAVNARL
# B1: hGSTK1-1 (Homo sapiens) (protein)
# chain: MGPLPRTVELFYDVLSPYSWLGFEILCRYQNIWNINLQLRPSLITGIMKDSGNKPPGLLPRKGLYMANDLKLLRHHLQIPIHFPKDFLSVMLEKGSLSAMRFLTAVNLEHPEMLEKASRELWMRVWSRNEDITEPQSILAAAEKAGMSAEQAQGLLEKIATPKVKNQLKETTEAACRYGAFGLPITVAHVDGQTHMLFGSDRMELLAHLLGEKWMGPIPPAVNARL
# notes: N-terminal 6xHis tag and TEV site (pNIC-28-BsaI), not cleaved; E. coli BL21(DE3), codon-optimised synthetic gene; Ni-NTA
# B2: hGSTA4-4 (Homo sapiens) (protein)
# chain: MAARPKLHYPNGRGRMESVRWVLAAAGVEFDEEFLETKEQLYKLQDGNHLLFQQVPMVEIDGMKLVQTRSILHYIADKHNLFGKNLKERTLIDMYVEGTLDLLELLIMHPFLKPDDQQKEVVNMAQKAIIRYFPVFEKILRGHGQSFLVGNQLSLADVILLQTILALEEKIPNILSAFPFLQEYTVKLSNIPTIKRFLEPGSKKKPPPDEIYVRTVYNIFRP
# notes: as for B1
# B3: hGSTA1-1 (Homo sapiens) (protein)
# chain: MAEKPKLHYFNARGRMESTRWLLAAAGVEFEEKFIKSAEDLDKLRNDGYLMFQQVPMVEIDGMKLVQTRAILNYIASKYNLYGKDIKERALIDMYIEGIADLGEMILLLPVCPPEEKDAKLALIKEKIKNRYFPAFEKVLKSHGQDYLVGNKLSRADIHLVELLYYVEELDSSLISSFPLLKALKTRISNLPTVKKFLQPGSPRKPPMDEKSLEEARKIFRF
# notes: as for B1
# Experiments:
# hGSTA4-4 = biological target: T1, hGSTA4-4; assay: UV/Vis initial rates of GS-conjugate formation, Michaelis-Menten fit; details: read-out: hGSTA4-4; 10 mM GSH, 0.1 M HEPES pH 8.0, 30 °C
# hGSTA1-1 = biological target: T2, hGSTA1-1; assay: as above; details: read-out: KM (mM) / hGSTA1-1; 10 mM GSH, 0.1 M HEPES pH 8.0, 30 °C
# From the text: UV/Vis initial rates of GS-conjugate formation, Michaelis-Menten fit on hGSTA1-1
# hGSTK1-1 = biological target: T3, hGSTK1-1; assay: as above; details: read-out: hGSTK1-1; 10 mM GSH, 0.1 M HEPES pH 8.0, 30 °C
# From the text: UV/Vis initial rates of GS-conjugate formation, Michaelis-Menten fit on hGSTK1-1
# [1] = substrate: COC(=O)c1cc([N+](=O)[O-])ccc1Cl; assay: UV/Vis initial rates of GS-conjugate formation, Lineweaver-Burk fit; assay type: biochemical, Homo sapiens; details: 10 mM GSH, 0.1 M HEPES pH 8.0, 30 °C
# From the text: (§1) UV/Vis initial rates of GS-conjugate formation, Lineweaver-Burk fit on hGSTK1-1
# [2] = substrate: COC(=O)c1ccc(Cl)c([N+](=O)[O-])c1; assay: as above; assay type: biochemical, Homo sapiens; details: 10 mM GSH, 0.1 M HEPES pH 8.0, 30 °C
# From the text: as §1
# purified protein [3] = substrate: O=[N+]([O-])c1cc([N+](=O)[O-])c(NCCCC[P+](c2ccccc2)(c2ccccc2)c2ccccc2)cc1Cl; assay: purified protein; details: 10 mM GSH, 0.1 M HEPES pH 8.0, 30 °C
# [4] = substrate: COC(=O)c1cc([N+](=O)[O-])ccc1Cl; assay: UV/Vis initial rates of GS-conjugate formation, Lineweaver-Burk fit; assay type: biochemical, Homo sapiens; details: 10 mM GSH, 0.1 M HEPES pH 8.0, 30 °C; remark: listed apart in the source
# From the text: (§2) UV/Vis initial rates of GS-conjugate formation, Lineweaver-Burk fit on hGSTA4-4
# [5] = substrate: COC(=O)c1ccc(Cl)c([N+](=O)[O-])c1; assay: as above; assay type: biochemical, Homo sapiens; details: 10 mM GSH, 0.1 M HEPES pH 8.0, 30 °C; remark: listed apart in the source
# From the text: as §2
# purified protein [6] = substrate: O=C(NCCCCC[P+](c1ccccc1)(c1ccccc1)c1ccccc1)c1ccc(Cl)c([N+](=O)[O-])c1; assay: purified protein; details: 10 mM GSH, 0.1 M HEPES pH 8.0, 30 °C
# [7] = substrate: COC(=O)c1cc([N+](=O)[O-])ccc1Cl; assay: UV/Vis initial rates of GS-conjugate formation, Lineweaver-Burk fit; assay type: biochemical, Homo sapiens; details: 10 mM GSH, 0.1 M HEPES pH 8.0, 30 °C; remark: listed apart in the source
# From the text: (§3) UV/Vis initial rates of GS-conjugate formation, Lineweaver-Burk fit on hGSTA1-1
# [8] = substrate: COC(=O)c1ccc(Cl)c([N+](=O)[O-])c1; assay: as above; assay type: biochemical, Homo sapiens; details: 10 mM GSH, 0.1 M HEPES pH 8.0, 30 °C; remark: listed apart in the source
# From the text: as §3
# purified protein [9] = substrate: O=C(NCCCCC[P+](c1ccccc1)(c1ccccc1)c1ccccc1)c1cc([N+](=O)[O-])ccc1Cl; assay: purified protein; details: 10 mM GSH, 0.1 M HEPES pH 8.0, 30 °C
molecule,measurement,setting,value
"O=[N+]([O-])c1ccc(Cl)c([N+](=O)[O-])c1 [compound 1, 1-chloro-2,4-dinitrobenzene]",Km,hGSTA4-4,253 ± 52 µM
same,Km,hGSTA1-1,0.128 ± 0.018 mM
same,Km,hGSTK1-1,1900 ± 320 µM
B1,Km,[1],1540 ± 30 µM
same,kcat,[1],(9.45 ± 0.68) x 10^-2 s^-1
same,Km,[2],301 ± 8 µM
same,kcat,[2],0.106 ± 0.008 s⁻¹
same,Km,purified protein [3],360 ± 67 µM
same,kcat,purified protein [3],0.103 ± 0.008 s⁻¹
B2,Km,[4],949 ± 27 µM
same,kcat,[4],(5.61 ± 0.37) x 10^-2 s^-1
same,Km,[5],3580 ± 90 µM
same,kcat,[5],0.521 ± 0.203 s⁻¹
same,Km,purified protein [6],826 ± 5 µM
same,kcat,purified protein [6],2.13 ± 0.05 s⁻¹
same,Km,purified protein [3],142 ± 9 µM
same,kcat,purified protein [3],4.59 ± 0.08 s⁻¹
B3,Km,[7],1670 ± 50 µM
same,kcat,[7],2.31 ± 0.55 s⁻¹
same,Km,[8],2050 ± 770 µM
same,kcat,[8],8.85 ± 2.79 s⁻¹
same,Km,purified protein [9],720 ± 17 µM
same,kcat,purified protein [9],(4.67 ± 0.19) x 10^-2 s^-1
same,Km,purified protein [6],441 ± 10 µM
same,kcat,purified protein [6],9.50 ± 0.45 s⁻¹
same,Km,purified protein [3],146 ± 20 µM
same,kcat,purified protein [3],14.7 ± 0.6 s⁻¹
